6 molecules from patent US20210292423A1 (published 2021) can be followed below.

For assay [1], the target named is T1, human CD123 (IL3RA) on cells (human, UniProt P26951 19-378). The assay is described as follows: cell-based or functional assay.
Assay [2] deals with T2, human CD3ε/δ-Fc fusion protein (soluble recombinant CD3ε/δ complex) (human, UniProt P04234 22-105).
T2 construct: also called huCD3ε/δ; huCD3; not shown: hinge, CH2, CH3 of human IgG with tag
Kind of assay: SPR Biacore, CODV-Fab on recombinant CD3ε/δ. The method, then:
(§1) Binding affinities of anti-CD3 binding Fabs or CODV-Fabs were measured by surface plasmon resonance (SPR) using a Biacore3000 instrument (GE Healthcare). Assay buffer was HBS-EP (BR-1001-88, GE Healthcare). Capture of CD3ε/δ-Fc fusion proteins was achieved using the human antibody capture kit (GE Healthcare). […] The CD3εδ-Fc fusions proteins were captured at 10 μl/min to approx. 70 RU to yield Rmax values of 30 RU. Binding kinetics with the anti-CD3 Fabs or CODV-Fabs was measured at 30 μl/min for 240 sec. and 600 sec. for association and dissociation phase, respectively. Twofold dilutions of Fabs from 3 to 400 nM in assay buffer were used. All Fab concentrations were run in duplicate together with duplicate buffer blanks for double referencing. Regeneration of the capture surface was performed with a 1 min injection of 3M MgCl2 solution at 30 μl/min. For data analysis the BIAevaluation software v.4.1 (GE Healthcare) was used. Data were fit globally using a 1:1 Langmuir model with mass transfer.
(In general: Surface plasmon resonance follows binding to a sensor surface in real time, without labels.)

Assay [3] addresses T2, human CD3ε/δ-Fc fusion protein (soluble …). Kind of assay: SPR Biacore, CODV-Fab. The method, then:
as §1

The target in assay [4] is T1, human CD123 (IL3RA) on cells. The assay is described as follows: cell-based or functional assay. The source holds these as a separate data set.
Assay [5] has as its target T3, human CD123 Strep-II tagged Fc-fusion protein (human).
T3 construct: also called human CD123-Fc; recombinant CD123
The assay is described as follows: SPR Biacore.

Assay [6] concerns the target T2, human CD3ε/δ-Fc fusion protein (soluble …). Kind of assay: SPR Biacore.
Assay [7] shares this target. The assay is described as follows: SPR Biacore. The source holds these as a separate data set.
Assay [8] addresses T4, human CD3 (TCR complex) on primary human T cells or Jurkat cells (human, UniProt P07766 23-207). Kind of assay: cell-based or functional assay.
The target of assay [9] is T4, human CD3 (TCR complex) on primary …. Kind of assay: cell-based or functional assay. The source holds these as a separate data set.

T1 sequence (P26951 19-378): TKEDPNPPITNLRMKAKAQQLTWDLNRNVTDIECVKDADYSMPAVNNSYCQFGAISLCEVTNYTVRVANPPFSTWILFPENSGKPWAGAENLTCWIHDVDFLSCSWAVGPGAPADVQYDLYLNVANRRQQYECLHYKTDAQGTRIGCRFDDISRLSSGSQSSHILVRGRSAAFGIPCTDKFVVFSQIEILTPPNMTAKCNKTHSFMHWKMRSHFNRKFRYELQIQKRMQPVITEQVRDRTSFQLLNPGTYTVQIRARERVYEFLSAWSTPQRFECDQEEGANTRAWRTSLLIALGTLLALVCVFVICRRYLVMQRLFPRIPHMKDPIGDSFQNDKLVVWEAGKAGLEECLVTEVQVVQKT
T4 sequence (P07766 23-207, one chain of several): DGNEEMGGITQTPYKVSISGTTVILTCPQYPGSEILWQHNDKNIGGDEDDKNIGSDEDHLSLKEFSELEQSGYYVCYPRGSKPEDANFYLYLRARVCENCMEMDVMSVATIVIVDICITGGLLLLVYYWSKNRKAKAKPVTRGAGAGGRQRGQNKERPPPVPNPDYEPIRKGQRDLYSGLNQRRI
T2 sequence (chain, as listed by the source mutant, chain 1 of 2): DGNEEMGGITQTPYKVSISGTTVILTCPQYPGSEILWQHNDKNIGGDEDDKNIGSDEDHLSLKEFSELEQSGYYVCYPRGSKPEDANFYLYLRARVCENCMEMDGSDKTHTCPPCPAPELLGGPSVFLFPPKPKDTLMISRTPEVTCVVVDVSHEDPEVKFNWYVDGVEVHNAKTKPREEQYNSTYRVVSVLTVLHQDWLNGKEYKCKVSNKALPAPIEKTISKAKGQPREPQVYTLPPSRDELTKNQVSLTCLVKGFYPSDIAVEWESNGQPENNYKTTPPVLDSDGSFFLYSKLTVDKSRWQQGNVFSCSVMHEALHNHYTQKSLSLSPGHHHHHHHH
T2 sequence (P04234 22-105, stated change not applied, chain 2 of 2): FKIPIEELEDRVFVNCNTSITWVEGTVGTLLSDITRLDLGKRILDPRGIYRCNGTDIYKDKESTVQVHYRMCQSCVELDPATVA
T3 sequence (chain, as listed by the source limits assumed): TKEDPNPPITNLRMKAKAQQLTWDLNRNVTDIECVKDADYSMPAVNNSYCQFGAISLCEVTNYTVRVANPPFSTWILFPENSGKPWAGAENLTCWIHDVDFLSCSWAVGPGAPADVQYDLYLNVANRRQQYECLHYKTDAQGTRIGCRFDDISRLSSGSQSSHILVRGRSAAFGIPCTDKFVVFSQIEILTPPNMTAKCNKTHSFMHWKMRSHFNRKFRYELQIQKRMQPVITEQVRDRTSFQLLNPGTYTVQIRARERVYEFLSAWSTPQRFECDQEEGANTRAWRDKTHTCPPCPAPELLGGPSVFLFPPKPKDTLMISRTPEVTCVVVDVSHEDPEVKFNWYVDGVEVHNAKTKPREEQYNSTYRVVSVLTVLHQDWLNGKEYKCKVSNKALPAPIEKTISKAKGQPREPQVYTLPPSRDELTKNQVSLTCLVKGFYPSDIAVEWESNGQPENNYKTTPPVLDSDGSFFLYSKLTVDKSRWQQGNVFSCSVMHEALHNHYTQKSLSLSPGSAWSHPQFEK

B1: CODV-Fab 7G3x20G6 antibody-like binding protein (bispecific antibody)
light: DVVMTQTPVSLSVSLGGQVSISCRSSQSLVHNNGNTYLSWYLQKPGQSPQSLIYKVSNRFSGFSDRFSGSGSGTDFTLKISRVDPDDLGVYYCGQGTQYPFTFGSGTKLEIKGQPKAAPDFVMTQSPSSLTVTAGEKVTMSCKSSQSLLNSGNQKNYLTWYLQKPGQPPKLLIYWASTRESGVPDRFTGSGSGTDFTLTISSVQAEDLAVYYCQNDYSYPYTFGGGTKLEIKTKGPSRTVAAPSVFIFPPSDEQLKSGTASVVCLLNNFYPREAKVQWKVDNALQSGNSQESVTEQDSKDSTYSLSSTLTLSKADYEKHKVYACEVTHQGLSSPVTKSFNRGEC
heavy: EVQLQQSGPELVKPGASVKMSCKASGYTFTDYYMKWVKQSHGKSLEWIGDIIPSNGATFYNQKFKGKATLTVDRSSSTAYMHLNSLTSEDSAVYYCTRSHLLRASWFAYWGQGTLVTVSASEVQLVETGGSLVQPGKSLKLTCATSGFTFTKAWMHWVRQSPEKQLEWVAQIKDKSNSYATYYAESVKGRFTISRDDSKSTIYLQMNSLKEEDTAIYYCRGVYYALSPFDYWGQGVMVTVSSRTASTKGPSVFPLAPSSKSTSGGTAALGCLVKDYFPEPVTVSWNSGALTSGVHTFPAVLQSSGLYSLSSVVTVPSSSLGTQTYICNVNHKPSNTKVDKKVEPKSCDKTHTHHHHHH
notes: formula I and formula II chains; hinge and His-tag added C-terminally to formula II; also called 7G3 × 20G6
What is called Kd is the equilibrium constant for the complex coming apart. The koff is a measure of how fast the partners let go of each other. In general, kon refers to the second-order rate constant of association. B1: the “Activity EC50 [ng/ml], cytotoxic assay on THP-1 with human T cells” value (“Activity EC50 [ng/ml], cytotoxic assay” below) in assay [1] stood at 18 ng/mL. Further, in [2], the Kd was 26.3 nM, the koff was 0.000571 s⁻¹ and the kon was 21700 M⁻¹ s⁻¹. In [3], the Kd came to 7 nM, the koff was 0.00051 s⁻¹ and the kon amounted to 72000 M⁻¹ s⁻¹.

B2: CODV-Fab 7G3x4E7 antibody-like binding protein (bispecific antibody)
light: DVVMTQTPVSLSVSLGGQVSISCRSSQSLEHNNGNTYLSWYLQKPGQSPQPLIYKVSNRFSGISDRFSGSGSGTDFTLKISRVEPDDLGVYYCGQGTQYPFTFGPGTKLELKGQPKAAPDFVMTQSPSSLTVTAGEKVTMSCKSSQSLLNSGNQKNYLTWYLQKPGQPPKLLIYWASTRESGVPDRFTGSGSGTDFTLTISSVQAEDLAVYYCQNDYSYPYTFGGGTKLEIKTKGPSRTVAAPSVFIFPPSDEQLKSGTASVVCLLNNFYPREAKVQWKVDNALQSGNSQESVTEQDSKDSTYSLSSTLTLSKADYEKHKVYACEVTHQGLSSPVTKSFNRGEC
heavy: EVQLQQSGPELVKPGASVKMSCKASGYTFTDYYMKWVKQSHGKSLEWIGDIIPSNGATFYNQKFKGKATLTVDRSSSTAYMHLNSLTSEDSAVYYCTRSHLLRASWFAYWGQGTLVTVSASEVQVVETGGSLVQPGKSLKLTCATSGFTFSNAWMHWVRQSPEKQLEWVAQIKDKSNNYATYYAESLKGRFTISRDDPKRSIYLQMNSLREEDTAIYYCRYVHYGIGYAMDAWGQGTSVTVSSRTASTKGPSVFPLAPSSKSTSGGTAALGCLVKDYFPEPVTVSWNSGALTSGVHTFPAVLQSSGLYSLSSVVTVPSSSLGTQTYICNVNHKPSNTKVDKKVEPKSCDKTHTHHHHHH
notes: also called 7G3 × 4E7
As for B2, the “Activity EC50 [ng/ml], cytotoxic assay” value in assay [1] came to 12 ng/mL. In addition, in assay [3], the equilibrium dissociation constant (Kd) was found to be 16 nM, the koff stood at 0.0019 s⁻¹ and the kon is 120000 M⁻¹ s⁻¹.

B3: CODV-Fab 7G3xhz4B4 antibody-like binding protein (bispecific antibody)
light: DVVMTQTPVSLSVSVGGRVSISCRSSQSLVHDNGNTYLSWSLQKPGKSPKVLIYKVSNRFSGVSSRFTGSGSGTDFTLKISSVQPDDLGVYYCGQGTQYPFTFGSGTKLEIKGQPKAAPDFVMTQSPSSLTVTAGEKVTMSCKSSQSLLNSGNQKNYLTWYLQKPGQPPKLLIYWASTRESGVPDRFTGSGSGTDFTLTISSVQAEDLAVYYCQNDYSYPYTFGGGTKLEIKTKGPSRTVAAPSVFIFPPSDEQLKSGTASVVCLLNNFYPREAKVQWKVDNALQSGNSQESVTEQDSKDSTYSLSSTLTLSKADYEKHKVYACEVTHQGLSSPVTKSFNRGEC
heavy: EVQLQQSGPELVKPGASVKMSCKASGYTFTDYYMKWVKQSHGKSLEWIGDIIPSNGATFYNQKFKGKATLTVDRSSSTAYMHLNSLTSEDSAVYYCTRSHLLRASWFAYWGQGTLVTVSASQVQLVETGGGLVKPGQSLKLTCATSGFTFSNAWMHWVRQSPEKGLEWVAQIKARSNNYATYYAESVKGRFTISRDDSKSTIYLQMNSLTPEDTAIYYCRGTYYASKPFDYWGQGVMVTVSSRTASTKGPSVFPLAPSSKSTSGGTAALGCLVKDYFPEPVTVSWNSGALTSGVHTFPAVLQSSGLYSLSSVVTVPSSSLGTQTYICNVNHKPSNTKVDKKVEPKSCDKTHTHHHHHH
notes: also called 7G3 × hz4B4 CODV-Fab
Regarding B3, the “Cytotoxic assay (THP cells) EC50 [pM]” value in assay [4] came to 26.7 pM. Besides, the Kd in [5] turned out to be 0.1 nM; in assay [6], 5.4 nM.

B4: CODV-Fab 7G3x4B4 antibody-like binding protein (bispecific antibody)
light: DVVMTQTPVSLSVSLGGQVSISCRSSQSLVHDNGNTYLSWSLQRPGQSPQVLIYKVSNRFSGTSDRFTGSGSGTDFTLKISRVEPDDLGVYYCGQGTQYPFTFGSGTKLEIKGQPKAAPDFVMTQSPSSLTVTAGEKVTMSCKSSQSLLNSGNQKNYLTWYLQKPGQPPKLLIYWASTRESGVPDRFTGSGSGTDFTLTISSVQAEDLAVYYCQNDYSYPYTFGGGTKLEIKTKGPSRTVAAPSVFIFPPSDEQLKSGTASVVCLLNNFYPREAKVQWKVDNALQSGNSQESVTEQDSKDSTYSLSSTLTLSKADYEKHKVYACEVTHQGLSSPVTKSFNRGEC
heavy: EVQLQQSGPELVKPGASVKMSCKASGYTFTDYYMKWVKQSHGKSLEWIGDIIPSNGATFYNQKFKGKATLTVDRSSSTAYMHLNSLTSEDSAVYYCTRSHLLRASWFAYWGQGTLVTVSASEVQLVETGGRLVQPGRSLKLTCATSGFTFSNAWMHWVRQSPEKQLEWVAQIKARSNNYATYYAESVKGRFTISRDDSKSTIYLQMNSLKEEDTAIYYCRGTYYASKPFDYWGQGVMVTVSSRTASTKGPSVFPLAPSSKSTSGGTAALGCLVKDYFPEPVTVSWNSGALTSGVHTFPAVLQSSGLYSLSSVVTVPSSSLGTQTYICNVNHKPSNTKVDKKVEPKSCDKTHTHHHHHH
notes: also called 7G3 × 4B4
As to B4, the “Activity EC50 [ng/ml], cytotoxic assay” value in [1] is 11 ng/mL. Further, in assay [3], the Kd stood at 17 nM, the koff is 0.0044 s⁻¹ and the kon turned out to be 270000 M⁻¹ s⁻¹.

B5: CODV-Fab hz20G6x7G3 antibody-like binding protein (bispecific antibody)
light: DFVMTQSPSSLTVTAGEKVTMSCKSSQSLLNSGNQKNYLTWYLQKPGQPPKLLIYWASTRESGVPDRFTGSGSGTDFTLTISSVQAEDLAVYYCQNDYSYPYTFGGGTKLEIKGQPKAAPDIVMTQTPLSLSVTPGQPASISCKSSQSLVHNNGNTYLSWYLQKPGQSPQSLIYKVSNRFSGVPDRFSGSGSGTDFTLKISRVEAEDVGVYYCGQGTQYPFTFGSGTKVEIKTKGPSRTVAAPSVFIFPPSDEQLKSGTASVVCLLNNFYPREAKVQWKVDNALQSGNSQESVTEQDSKDSTYSLSSTLTLSKADYEKHKVYACEVTHQGLSSPVTKSFNRGEC
heavy: QVQLVESGGGVVQPGRSLRLSCAASGFTFTKAWMHWVRQAPGKQLEWVAQIKDKSNSYATYYADSVKGRFTISRDDSKNTLYLQMNSLRAEDTAVYYCRGVYYALSPFDYWGQGTLVTVSSSEVQLQQSGPELVKPGASVKMSCKASGYTFTDYYMKWVKQSHGKSLEWIGDIIPSNGATFYNQKFKGKATLTVDRSSSTAYMHLNSLTSEDSAVYYCTRSHLLRASWFAYWGQGTLVTVSARTASTKGPSVFPLAPSSKSTSGGTAALGCLVKDYFPEPVTVSWNSGALTSGVHTFPAVLQSSGLYSLSSVVTVPSSSLGTQTYICNVNHKPSNTKVDKKVEPKSCDKTHTHHHHHH
notes: also called hz20G6 × 7G3 CODV-Fab
For the molecule B5, the “Cytotoxic assay (THP cells) EC50 [pM]” value in assay [4] amounted to 30.9 pM. The results for the Kd in assay [5] and in assay [6] were 0.6 nM and 5 nM, respectively.

B6: CODV-Fab-OL1 hz20G6xhz7G3 antibody-like binding protein (bispecific antibody, human IgG1, kappa, L234A L235A)
light: DIVMTQSPDSLAVSLGERATINCESSQSLLNSGNQKNYLTWYQQKPGQPPKPLIYWASTRESGVPDRFSGSGSGTDFTLTISSLQAEDVAVYYCQNDYSYPYTFGQGTKLEIKGGSGSSGSGGDIVMTQTPLSLSVTPGQPASISCKSSQSLVHNNANTYLSWYLQKPGQSPQSLIYKVSNRFSGVPDRFSGSGSGTDFTLKISRVEAEDVGVYYCGQGTQYPFTFGSGTKVEIKGGSGSSGSGGRTVAAPSVFIFPPSDEQLKSGTASVVCLLNNFYPREAKVQWKVDNALQSGNSQESVTEQDSKDSTYSLSSTLTLSKADYEKHKVYACEVTHQGLSSPVTKSFNRGEC
heavy: not shown
chain: GSDKTHTCPPCPAPEAAGGPSVFLFPPKPKDTLMISRTPEVTCVVVDVSHEDPEVKFNWYVDGVEVHNAKTKPREEQYNSTYRVVSVLTVLHQDWLNGKEYKCKVSNKALPAPIEKTISKAKGQPREPQVCTLPPSRDELTKNQVSLSCAVKGFYPSDIAVEWESNGQPENNYKTTPPVLDSDGSFFLVSKLTVDKSRWQQGNVFSCSVMHEALHNHYTQKSLSLSPG
notes: formula I chain, formula III chain and Fc stump (Fc3); also called hz20G6xhz7G3 CODV-Fab-OL1; hz20G6xhz7G3 CODV-OL1
As to B6, in [7], the Kd turned out to be 15 nM. Moreover, in assay [8], the “T cell activation with THP-1 target cells, CD4+ T cells (% CD69+ cells) EC50 (pM)” value was found to be 1 pM and the “T cell activation with THP-1 target cells, CD8+ T cells (% CD69+ cells) EC50 (pM)” value stood at 3.3 pM. In assay [9], the “Jurkat-NFAT-Luc reporter, no target cells, activation at Cmax in relation to max. activation in assay with target cells (%)” value worked out at 0.4% and the “Jurkat-NFAT-Luc reporter, with THP1 cells, EC50 (pM)” value was determined as 320 pM.
